According to publication PMC7064531:

Target: hRpn10^322–366 peptide with Y326 phosphorylated (human) (UniProt P55036)
Assay: ITC; 25 °C, MicroCal iTC200; E6AP AZUL injected into hRpn10 305-377 (0.0405 mM) or hRpn10 322-366 peptides (0.01 mM) in the cell; 10 mM MOPS pH 6.5, 50 mM NaCl, 5 mM DTT, 10 μM zinc sulfate; one-site fit

Sequence of E6AP AZUL (amino-terminal zinc-binding domain of ubiquitin E3a ligase), amino acids 24 to 87 (Q05086 24-87): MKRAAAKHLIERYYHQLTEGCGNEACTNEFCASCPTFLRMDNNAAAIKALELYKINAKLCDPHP

fold reduction of affinity against unphosphorylated hRpn10 322-366: 10 fold
Substance: E6AP AZUL (amino-terminal zinc-binding domain of ubiquitin E3a ligase), amino acids 24 to 87 (from UniProt Q05086 24-87) (domain or fragment)
